Results taken from PMC3970758, “A conserved MCM single-stranded DNA binding element is essential for replication initiation”.
Numbering of substitutions follows the chain as printed.

T1: PfMCMN F202A (Pyrococcus furiosus, UniProt Q8U3I4 1-256, F202A)
T1 sequence: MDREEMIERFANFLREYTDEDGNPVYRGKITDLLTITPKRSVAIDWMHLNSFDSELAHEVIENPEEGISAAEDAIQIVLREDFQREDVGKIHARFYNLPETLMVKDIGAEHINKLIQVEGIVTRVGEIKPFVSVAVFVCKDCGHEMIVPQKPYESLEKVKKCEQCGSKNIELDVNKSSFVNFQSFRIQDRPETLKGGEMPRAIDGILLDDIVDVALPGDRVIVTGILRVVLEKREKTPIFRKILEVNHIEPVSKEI

T2: PfMCMN K233A (Pyrococcus furiosus, UniProt Q8U3I4 1-256, K233A)
T2 sequence: T1 sequence with A202F, K233A

T3: PfMCMN R124A (Pyrococcus furiosus, UniProt Q8U3I4 1-256, R124A)
T3 sequence: T1 sequence with R124A, A202F

T4: PfMCMN R186A (Pyrococcus furiosus, UniProt Q8U3I4 1-256, R186A)
T4 sequence: T1 sequence with R186A, A202F

T5: PfMCMN K129A (Pyrococcus furiosus, UniProt Q8U3I4 1-256, K129A)
T5 sequence: T1 sequence with K129A, A202F

T6: PfMCMN R124A/R186A (Pyrococcus furiosus, UniProt Q8U3I4 1-256, R124A;R186A)
T6 sequence: T1 sequence with R124A, R186A, A202F

B1: 26-mer dsDNA (dsDNA)
DNA 1: ATGGCAGATCTCAATTGGATATCGGC
DNA 2: GCCGATATCCAATTGAGATCTGCCAT

Columns and labels:
PfMCMN F202A = molecular target: T1, PfMCMN F202A; assay: EMSA; 5 mM Mg2+; EMSA: 20 mM HEPES pH 7.6, 200 mM NaCl, 5 mM MgCl2, 5 mM bME, 25 C, 30 min, 160 nM DNA; 4-20% TBE PAGE; settings: protein: recombinant; tags: His6-SUMO removed by Ulp1; label: 5'-fluorescein
PfMCMN K233A = molecular target: T2, PfMCMN K233A; assay: as above; settings: protein: recombinant; tags: His6-SUMO removed by Ulp1; label: 5'-fluorescein
PfMCMN R124A [1] = molecular target: T3, PfMCMN R124A; assay: as above; settings: protein: recombinant; tags: His6-SUMO removed by Ulp1; label: 5'-fluorescein
PfMCMN R186A [2] = molecular target: T4, PfMCMN R186A; assay: as above; settings: protein: recombinant; tags: His6-SUMO removed by Ulp1; label: 5'-fluorescein
PfMCMN K129A [3] = molecular target: T5, PfMCMN K129A; assay: as above; settings: protein: recombinant; tags: His6-SUMO removed by Ulp1; label: 5'-fluorescein
PfMCMN R124A/R186A [4] = molecular target: T6, PfMCMN R124A/R186A; assay: EMSA; 5 mM Mg2+; protein 54-270 uM; EMSA: 20 mM HEPES pH 7.6, 200 mM NaCl, 5 mM MgCl2, 5 mM bME, 25 C, 30 min, 160 nM DNA; 4-20% TBE PAGE; settings: protein: recombinant; tags: His6-SUMO removed by Ulp1; label: 5'-fluorescein
PfMCMN R124A [5] = molecular target: T3, PfMCMN R124A; assay: EMSA; 5 mM Mg2+; EMSA: 20 mM HEPES pH 7.6, 200 mM NaCl, 5 mM MgCl2, 5 mM bME, 25 C, 30 min, 160 nM DNA; 4-20% TBE PAGE; settings: protein: recombinant; tags: His6-SUMO removed by Ulp1; label: 5'-fluorescein on strand 1; blunt
PfMCMN R186A [6] = molecular target: T4, PfMCMN R186A; assay: as above; settings: protein: recombinant; tags: His6-SUMO removed by Ulp1; label: 5'-fluorescein on strand 1; blunt
PfMCMN K129A [7] = molecular target: T5, PfMCMN K129A; assay: as above; settings: protein: recombinant; tags: His6-SUMO removed by Ulp1; label: 5'-fluorescein on strand 1; blunt
PfMCMN R124A/R186A [8] = molecular target: T6, PfMCMN R124A/R186A; assay: EMSA; 5 mM Mg2+; protein 10-40 uM; EMSA: 20 mM HEPES pH 7.6, 200 mM NaCl, 5 mM MgCl2, 5 mM bME, 25 C, 30 min, 160 nM DNA; 4-20% TBE PAGE; settings: protein: recombinant; tags: His6-SUMO removed by Ulp1; label: 5'-fluorescein on strand 1; blunt

Row | Binder | binding result (PfMCMN F202A) | binding result (PfMCMN K233A) | binding signal (PfMCMN R124A [1]) | binding signal (PfMCMN R186A [2]) | binding signal (PfMCMN K129A [3]) | binding signal (PfMCMN R124A/R186A [4]) | binding result (PfMCMN R124A [5]) | binding result (PfMCMN R186A [6]) | binding result (PfMCMN K129A [7]) | binding signal (PfMCMN R124A/R186A [8])
1 | TTTTTTTTTTTTTTTTTTTTTTTTTTTTTTTTTTTTTTTT (ssDNA) [T40 ssDNA] | binds | binds | 7 fold reduction vs WT | 6 fold reduction vs WT | 4 fold reduction vs WT | 25 fold reduction vs WT |  |  |  | 
2 | B1 |  |  |  |  |  |  | binds | binds | binds | 3 fold reduction vs WT
